Laboratory results reported in a protein production outcome set (Wang et al. 2014).

Experiment: label from the status in PepcDB records

Sequence	protein production
MVQRITIAPQGPEFSRFVMGYWRLMDWNMSARQLVSFIEEHLDLGVTTVDHADIYGGYQCEAAFGEALKLAPHLRERMEIVSKCGIATTAREENVIGHYITDRDHIIKSAEQSLINLATDHLDLLLIHRPDPLMDADEVADAFKHLHQSGKVRHFGVSNFTPAQFALLQSRLPFTLATNQVEISPVHQPLLLDGTLDQLQQLRVRPMAWSCLGGGRLFNDDYFQPLRDELAVVAEELNAGSIEQVVNAWVLRLPSQPLPIIGSGKIERVRAAVEAETLKMTRQQWFRIRKAALGYDVP	not failed
MCLAIPSVVIDIFEEDGEKYALAEYKGVKQKAKLALIEGVEIGDYVLIHTGYALEKMSEDEAKLSLDAWEELFDVLDEM	failed
MTRVPFTQNYRWHLPLLLLVFCCSFFINNGAIFADIMESRNIITAREMVYDHNWLVPTMNGELRLEKPPLPTWIAAITEMISPDNLPLQRAMAGFAAVMLVLFFYKFATKLTDNRTYALVSSLVLCTSYNIILMGRTATWDIYCHAFMIGAIYYLYLALRQNTCKWTYFIGAGIFMGLSFLGKGPVSFYALLLPFVCAYILYYRKETQMKGKWIALAVMILIGIVLSTWWYAYIYIYHQEMASYVFHKESSSWSNHNVRSWYYYWQFFLETGVWSLLTLTTLLVPFWKKRVESSKEYLFCLSWMLLILFFLSLLPEKKTRYLLPILLPAALTMGHLFVYWIRQAKQKMPQLKDRVLYRINAYLIVVAALALPIALYLFMYREGRMGTGMFVWLVVLFLTVAVWLFRSAFKLQPFSFLMGIVALFAVAELFVMPYIGSFVSNSDPKSISATRENPELQPLPFYHSKDEVLRIELVYEAHKKIGDMDLSNKEEIIKALPFVLISQKPAELLIPDSIRKDLNLRFIDCYDNNRWAKGHKRYDSVFISNVTIVEPIKEQ	failed
ATFFIKMNQKTVPEFKNKHLRLAISQAINKKGYVNSVLNDGSLPSNNFTGVGTADTPDGKDFARTIKSPLKFNPDLAKKNWREAQKELGKNKFTFTMNTQDTPASKIAAEYIKSQIESHLPGVTLKIKQMPFKQKTTLELANNYEASYSGWSPDYPDPTAFLQTMTKNNAQNNTDWSNKEYDQLLKDANSKLLRKLGERNTSLQKAEYILLHEAPVAPVYQ	failed
MMNTSDNHALGDFLRARRQRLDPATFGFPAGRRRTPGLRREEVAQLASISPTWYTWLEQGRGGAPSREVLERIARGLRLTTPEREHLFILAFGHPPQTRLTVTDDMTPRLQRVLDAFTIPAIIRTASW	failed
MLLAVEGGGLFSASASGYSKGLTLLFSGDKDVDRPMRVVPWNHYQVVDQEPEADPVLQLDSIKNRVSRGCAASFSCFGGASAGLETPSPLKVEPVQQQHREISSPESVVVVSEKGKDQISEADNGSSKEAFKLSLRSSLKRPSVAESRSLEDIKEYETLSVDGSDLTGDMARRKVQWPDACGSELTQVREFEPRYV	failed
MINVEQVFALDIGTRLVMGLIMEKAPGGYHIIARAQTEHRQRAMYDGQIHDIEEVAQAVQRVKEELEEKIKGKLHYVSVAAAGRALKTAVATAQKSELIPMIWEREDIFALEMEAVQQALREIQAEDEIIPYHCVGYSTIESLLEGQNLSSLSGQRGKEAQVKVIATFLPRTVIDGLTRVISKVGLEMRELTLEPIAAGRAAIPPDMRRMNLALVDVGAGTSDIALTKSGSFFAYGMVPMAGDEITERICQHFLVDFQTGEKIKRSLNTKTKVTFTDFLGMKTTVNKEEVLEQIQPVVLELAQKLADEILRLNQGNPHAIILIGGGSQTPLLAEVLSDLLELPRNRVGIQVRERIQGVSGEKSLKGPDAITPIGIGISTIEGEGLQYFSVHVNDLTVQIFELQLATVSDALLAAGITPRLLVGRPGSALTVELNGDIKVSKGQFSKPAQFFLNGEEVKLDHELKPGDKIQFIPAQDGENAQATFADLVPAIPEKKIKVNGESVVFTAQIFCNGRPVTRDGDVPDGAKITVFQNQTLKDLLHFLNDKQYSLSEIRYKINGEERVIPIHKEFYINQQKVALERMIKDGDDLVILVKEVYIKDLQLKPTPMVFYVNGQEVEYPPQIFRILSRGRVLSDQEKVVDGMELSVEGYDTMPLLSELLPYVNIPQDVPANARLSLKRNNQEAEFTTPLIPGDRIEIHWEQVASALLEHHHHHH	not failed
MKAKHLTQLLKASFLSCSMIATTLSMAQLPPAPQEKYGDGRVSEFYTWKSAIPAQPGKLLRTEAVHNPYIRLANDSQAIRILYSSTSGKDSKTPIVVSGSIHLPKGNPPKEGWPVVLWAHGTVGLADACAPSWSGRSYRDVQYLNRWLNEGFAVVATDYEGLGVAGPHLLINNPMLAYSILDSGRAALKTKLPLANKFVIVGQSQGGAGAVAASSYSATYAPDLNIKGSIGTGVIYKDPEATPEKNQLKLNPYEVSPSLAYGIYSFLVTQSLYPEIKTEEIFTPEAAPLVEQARNACLTSFMGDIQTAGLSPAQAYKPNPPTSYKKLQEKESNDYGYYPTLKISHPLFIGTGANDRTPDARSQMKLVADACKAGTVVEGHLYHGLGHSETVNASLKDSIPFAKKVIAGEKIQAICKPDLQ	failed
TDDEEKDNNGQGSVSVETNYLPIADPYVMFYNNKYYAYGTGGTTAGEGFACFSSDDLKNWKREGQALSATDSYGTWGFWAPEVYYVESKKKFYLFYSAEEHICVATSTTPEGPFRQEVKQPIWSEKSIDTSLFIDDDGTPYLYFVRFTDGNVIWVAQMTDDLMSIKTETLNQCIKAEVSWELLQGKVAEGPSLLKKNGVYYLIYSANHYENKGYGVGYATSDTPMGPWVKYSKNPLLQGDAATGLVGTGHGAPFQCKDGSWKYIFHAHWSAAEIQPRTSYIKDFAISDQGVVTISGTVIKPRVLK	not failed
THSVETPYGSVTFTVYGTPKPKRPAIFTYHDVGLNYKSCFQPLFRFGDMQEIIQNFVRVHVDAPGMEEGAPVFPLGYQYPSLDQLADMIPCILQYLNFSTIIGVGVGAGAYILSRYALNHPDTVEGLVLINIDPNAKGWMDWAAHKLTGLTSSIPDMILGHLFSQEELSGNSELIQKYRGIIQHAPNLENIELYWNSYNNRRDLNFERGGETTLKCPVMLVVGDQAPHEDAVVECNSKLDPTQTSFLKMADSGGQPQLTQPGKLTEAFKYFLQG	not failed
MLKTVHQKAGRHTRPVRAWLKLLWQRIDEDNMTTLAGNLAYVSLLSLVPLIAVVFALFAAFPMFSDVSIQLRHFIFANFMPATGDVIQRYIEQFVANSNKMTAVGACGLIVTALLLMYAIDSALNTIWRSKRTRPKVYSFAVYWMILTLGPLLAGASLAISSYLLSLRWASDLNTVIDNVLRILPLLLSWISFWLLYSIVPTTRVPNRDALVGAFVAALLFEAGKKGFALYITMFPSYQLIYGVLAVIPILFVWVYWTWCIVLLGAEITVTLGEYRKLKQAAEQEEADQP	failed
MKALLPGLYLLPVPIPYPLKTVNLYLLQGAGEVALVDTALGTRAARGALELHLAELGLCFQDVKTILLTHHHPDHYGLSGFFEGLGARVFLHEEEFARGHRFWREPEAFAEASWRLFLDHGTPEGALQGIRETVEKTRERVHPPQNPLPLRDGEALEVAGKRLRVLWTPGHADGHAAFYLEEEGVLLAGDALLEKVSPNVGLWAYTRENPLKDFLRSLDRLADLGARVAYAGHFGPIADVRQRAEELKAHHQARLEALLALLDGPKTAWELSLHLFPQELDPAGRRFAFAETLAHLEYLREEGAVGRGGPPYRYFRR	not failed
MASLGSAAAGEPATGAEAEPGPPAPPPPPPPPPAPSPSALGPLLPLQREPLYNWQATKASLKERFAFLFNSELLSDVRFVLGKGRGAAAAGGPQRIPAHRFVLAAGSAVFDAMFNGGMATTSAEIELPDVEPAAFLALLRFLYSDEVQIGPETVMTTLYTAKKYAVPALEAHCVEFLTKHLRADNAFMLLTQARLFDEPQLASLCLDTIDKSTVDAISAEGFTDIDIDTLCAVLERDTLSIRESRLFGAIVRWAEAECQRQQLAVTFGNKQKVLGKALSLIRFPLMTIEEFAAGPAQSGILSDREVVNLFLHFTVNPKPRVEYIDRPRCCLRGKECCINRFQQVESRWGYSGTSDRIRFTVNRRISVVGFGLYGSIHGPTDYQVNIQIIEYEKKQTLGQNDTGFSCDGTANTFRVMFKEPIEILPNVCYTACATLKGPDSHYGTKGLKKVVHETPAASKTVFLFFSSPGNNNGTSIEDGQIPEIIFYT	failed
MLRIIVIGTTGSGKTTFARALAQRLGLPHGEQDAWNHEANWQMAPLGRFRARVDTFTSQPAWVMDGNYGKARDLGWARADTLIWLDFPAWLVYSRLVRRTLWRVLTQQELWNGNRETWRGALLDPEGPLRWFWKTHWRRRQETPALAAEFPHLRLVRLRSPGEARRFLAAVGRGHPTALEHHHHHH	failed
MTLTRDSLLTLEAYAKVRRQEHARVIAHKKRRAVSIGNHLRLLFEDETTIRYQIHEMLHIEKIFDEDGIQAELDAYLPLVPDGSNLKATLQIEYENETQRRAALARLVGIEDRVFLRVDDEAPVYAIADEDLERDTAEKTSAVHFLRFELGDAMKAKLKAGAPLSIGCDHPHYPIQAARIDPDVAASLAGDLD	not failed
MMTKKDLPLRQLLKLRNSWIAWVVFLVSVVATVLLWQVSIRLVEDRTEARFRTQSLQLKTAIEERLLNYEQVLAGSAGLFAVTGKVTRDQWKEYVDNVDINRYYPGIEGIGYVERIGVREMADHIASVRAEGLYNYLVKPLGTGPYYYPMVYLEPGTERNRKALGYDAFSDPIHRTAMEQARDDAIPTVTGKVVLVQESVAEDQAGFLMYYPVFQGGEIPEIRAERRMMLAGYVFSAFRMNNLIDGIVGLISPFLDVRIYDSGVVARDTLMYGSNLGSLDNEFSFEMSQTIRHGGREWLLQTRSTPAFDYLAADPRPPIVLGSGLAISLLLWLFVLALIRSRLIAQVSAGRYRAITEGAANVTLVMDRRGRPLYASPSSRDILGFDPDKVEALEFEKLVHMDDWSHLQRGFEESMASPGKQMPVVRARVRDADGQWRDMEGTFTAMLSVPGVNGVVLSLRDLTQLKAAQSELHRLAFYDPLTGLANRQLFRDRLNHVVRRSRRSGEAAALMFLDLDGFKRINDTLGHDAGDELLRQVAQWLEGCVREEDSVARLGGDEFVVLLSRISGSEAAGKVAENILRRLCQRIRLNDHEVGVTVSIGITMIPHDSEDAGALMKYADLAMYRAKELGRNTYQFFTPAMNIQAARRLLQQEELATALDGDRFVLHYQPKVDLATQRVIGVEAFLRWHHPEKGLVSAQQFITLAEETGLIIRLGELALRQACIQVQALERAGFESLKMAVNFSVRQLTDSGFLDMIRRVITETGVSPERLELEMPAELLNEDPRMLRELLVSLNDLGVCLILDDFGTGSCSLVALQQLPLDVIKIDHRFIRDIPYNVSATDVASAVIALAHKLHLTVVAEGVETLQQLTFLKSAGCAQCQGNLFSYPLDEDALIGFLIRQYEKPLIS	failed
MDLFVMVVGASGIGDGGEQKYNYKLRAWTNEDDPRQTKIVTTNADPEFREVLHLPQNMASSFLNLELFSVNSADTDAFFIGRANTALPMKTNANVYRKIKLQNLDTSGNIVTVGYLEVYLGLETG	failed
MRIQMATKSSKKYKGVYCDNKGKIFYQIDLGIDPVTGKRVQKKARKNQYGKTFETMKEAYDELVRIKYEFANKVHLENYNMTFENYMNTIYLRAYKQKVQSVTYKTALPHHKLFIQYFGSKPLKAITPRDCEAFRLHIIENYSENYAKNLWSRFKACMGYAERLGYISDMPCKALDNPRGKHPETPFWTYAEFQTFIKSFDLHDYEELQRFTAIWLYYMTGVRVSEGLSLCWEDIDFDKKFLKVHTTLEKDENGNWYRKDQTKTPAGERLIELDDITIEVLQVWRKNQFANQDTDFIISRFGDPFCKSTICRIIKRKAQQVGVPVITGKGLRHSHASYLINVLKKDILYVARRMGHADKSTTLNTYSHWFNALDKTVSEEITQNIKSAGLDSILCQNSCQTSN	failed
